B1: PAL Ganoderma sinense: Phenylalanine ammonia-lyase (PAL) from Ganoderma sinense (protein)
chain: MPGYTLTKTQSTSTFEPSPVTLKKAAVSSPLHAEPELPKQSSAPTLLHKFVEAHRALNNYKQGQPIVVDGQTLSIPAVAAVARYNADVVLDDSSDIQTRVLKSRQVIVDKVSSQKSVYGVSTGFGGSADTRTSDPLTLGLALFQHQHCGVLPSDTDSVPVALPLLDPLTSTSMPESWVRGAILIRMNSLIRGHSGVRWELIERMSALLRENIVPLVPLRGSISASGDLSPLSYIAGLLIGNPSIRVFDGPSTFRGRRIVSSREALSAHHIEPISLGSKEHLGILNGTAFSASVGALAVHEAVHLSLLGQVCTAMCTEAMLGAKGSFAPFIHSVARPHPGQVEVAETVTDLLEGSHFAVTAEEEKHISADIGELRQDRYPLRTSAQFLGPQVEDVLSAFAAITIECNSTTDNPLIDGETGEVHHGGNFQAMSVTNAMEKTRLAMHHIGKLLFAQCTELLNPSMNRGLPPNLAATDPSHNYFAKGVDIHAAAYVGELGYLANPVSTHVQSAEMHNQAVNSLALISARATLNSLEVLSILTSSFLYVLCQALDLRAMQHEFELEVDGILRQQLALSFGRHLSAADLDALFSVLSRHVRRSLETTSTMDAALRMRTVAAATTTPFVDFCAKRNTSLDLDEIVAFRAGLSEGMVGSLVRLREEYLRGSKGPAPAAKYLGRSRAVYEFVRVTLGIRMHGSENLHDFKEGPGVEDPTIGQDIALIHEAIRDGKMQDVVVGIFA
modifications: Ganoderma sinense
B2: CYP82D Panax ginseng: CYP82D from Panax ginseng (protein)
chain: METFLAQLYSTTTIAALFVLLVLYYFSPWTRINKKNVAPEAGGGWPIIGHLHLLGGSKLPHLVFGSMADKYGPIFTVRLGVQRSLVVSSWEMVKDIFTTNDVIVSGRPKFLAAKHLSYNYAMFGFSPYGSFWLELRKITSLQLLSNRRLELLKHVRVSEMEISMRQLYKLWSEKKNGSGRVLMDMKKWFGELNLNVTFRMVAGKRYFGGGAASNDEEARRCRRVVREFFRLLGVVVVADSLPFLRWLDLGGYERAMKETAREMDSIVSVWLEEHRIKSDSSGDDANMEQDFMDVMLSAVKNVDLCGFDAHTVIKATCMVIISSGTDTTTVELTWALCLLLNNRHVLKKAQEELDNVVGKQRRVKESDLNNLIYLQAIVKETLRLYPAGQLGGQREFSDDCTVGGYHVPKRTRLVVNLWKLHRDPRIWSDPTEFRPERFLERHKEIDVKGQHFELIPFGAGRRVCPGITFGLQMFHLVLASLLHGFDISTPSDAPVDMAEGAGLTNAKITPLEILIAPRLSPSLYE
modifications: Panax ginseng
B3: HCTC3H Coffea canephora: hydroxycinnamoyl-CoA:quinate hydroxycinnamoyltransferase p-coumaroyl quinate 3′-hydroxylase fusion (HCTC3H), Coffea canephora (protein, listed as Coffea canephora)
chain: MKIEVKESTMVRPAQETPGRNLWNSNVDLVVPNFHTPSVYFYRPTGSSNFFDAKVLKDALSRALVPFYPMAGRLKRDEDGRIEIECNGEGVLFVEAESDGVVDDFGDFAPTLELRRLIPAVDYSQGISSYALLVLQVTYFKCGGVSLGVGMRHHAADGFSGLHFINSWSDMARGLDVTLPPFIDRTLLRARDPPQPQFQHIEYQPPPALKVSPQTAKSDSVPETAVSIFKLTREQISALKAKSKEDGNTISYSSYEMLAGHVWRCACKARGLEVDQGTKLYIATDGRARLRPSLPPGYFGNVIFTATPIAIAGDLEFKPVWYAASKIHDALARMDNDYLRSALDYLELQPDLKALVRGAHTFKCPNLGITSWVRLPIHDADFGWGRPIFMGPGGIAYEGLSFILPSPTNDGSMSVAISLQGEHMKLFQSFLYDIGGGGSGGGGSGGGGSMALLLILLPVAFIFLAYSLYERLRFKLPPGPRPKPVVGNIYDIKPVRFKCYAEWSKLYGPIFSVYFGSQLNTVVNTAELAKEVLKDNDQQLADRYRSRPSARMSRNGQDLIWADYGPHYVKVRKLCNLELFTPKRLEGLRPLREDEVTAMVDSIFKDCTKPENKGKSLLMRNYLGSVAFNNITRLTFGKRFMNSEGVVDEQGQEFKGIVSNGIRIGAKLSVADHIPWLRWMFVGENEDLDKHNARRDKLTRMIMEEHTLARQKSGNTKQHFVDALLTLQKQYELSDDTVIGLLWDMITAGMDTTTISVEWAMAELVKNPRVQQKAQEELDRVIGSDRIMTEADFAKLPYLQCVAKEALRLHPPTPLMLPHRANANVKIGGYDIPKGSIVHVNVWAIARDPAAWKNPLEFRPERFLEEDVDIKGHDYRLLPFGAGRRICPGAQLALNLVTSMLGHLLHHFTWSPPPGVRPEEIDLEESPGTVTYMRTPLQAVATPRLPAHLYNRVPVE
B4: UGT Cicer arietinum: Glycosyltransferase (UGT) from Cicer arietinum (protein, listed as Cicer arietinum)
chain: MKKIEVVFIPSPGVGHLISTLEFANLLINRNNRLNITVLVINFPKTVEKQTNYSLTESENLHVINLPQTTTHVPSTSDVGNSISALVETQKSNVKQAVSNLTGTLAAFVVDMFCTTMIDVANELGVPSLVFFTSGVAFLGLMLHLHTIWEQQDTELLLQQDELDIPSFANPVATNTLPTLVLRKEWESSFIKYGNGLKKASGIIVNSFHELEPHAVRSFLEDPTLRDLPIYPVGPILNPKSNVDSDDVIKWLDDQPPSSVVFLCFGSMGTFDEEQVREIALAIERSGVRFLWSLRKPQPQGTMVPPSDYTLSQMLEVLPEGFLDRTANIGRVIGWAPQVQVLAHQATGGFVSHCGWNSTLESIYYGVPIATWPLFAEQQTNAFELVRELKIAVEIALDYRLEFDIGRNYLLDADKIERGIRGVLDKDGEVRKKVKEMSQKSRNVLLEGGSSYTYLGQLIDYITNQV
B5: C4H4CL Azospirillum sp.: Cinnamate 4 hydroxylase 4 coumarate coenzyme ligase fusion (C4H4CL), Azospirillum sp. (protein)
chain: MDLLLLEKTLLALFIAATIAITISKLRGKRFKLPPGPIPVPVFGNWLQVGDDLNHRNLTDLAKRFGDIFLLRMGQRNLVVVSSPELAKEVLHTQGVEFGSRTRNVVFDIFTGKGQDMVFTVYGTLAEMRRIMTVPFFTNKVVQQYRFGWEFEAQSVVDDVKKNPEACSSGIVLRRRLQLMMYNIMYRIMFDRRFESEEDPLFVKLKALNGERSRLAQSFEYNYGDFIPILRPFLKGYLKLCKEVKDRRLQLFKDYFVDERKKLGSTKSTTNEGLKCAIDHILDAQQKGEINDDNVLYIVENINVAAIETTLWSIEWGIAELVNHQKIQNKVREEIDRVLGPGHQVTEPDLQKLPYLQAVIKETLRLRMAIPLLVPHMNLHDAKLSGFDIPAESKILVNAWWLANNPAQWKKPEEFRPERFLEEESHVEANGNDFRYLPFGVGRRSCPGIILALPILGITLGRLVQNFELLPPPGQSKIDTAEKGGQFSLHILKHSTIVCKPRSFNGGGGSGGGGSGGGGSMTIQRWWRNRESLNRVLCDLLAGEFARLRPGGSPPAHPHRWPETLPLGPDGVGADSLDLLQLAAALNEALHLHRSGIEDYLLMHRTVGDWLDVCEAALGRFDGALSFRTSGSTGEGKRCEHPLAALEEEADALAALLSGGAEAPRRVVSVVPAHHIYGFLFTVLLPDRLAVPVVDGRGTSPGGLAARLGPGDLVVAHPDWWGALLRSGAALPDGVTGTSSTAPCPPDTARGVRGVGLARLVEVFGSSETAGLGWRESPDAPFRPFPWWRFGDDGRVTRRLADGTVLSATLQDRLSHDEEGFRPSGRLDTVVQVGGVNVSLAGVQAHLAGHPDVEAAAVRLMRPEEGTRLKAFIVPARTAPPREELYRRLTDWIEATLPAPHRPRALAFGPALPVNGMGKPCDWPLATCR
modifications: Depicts the nucleic acid sequence of Cinnamte 4 hydroxylase 4 coumarate coenzyme ligase fusion (C4H4CL) of Azospirillum sp.
B6: CYP82D (SEQ ID NO: 40) Panax ginseng (protein)
chain: B2 chain
modifications: Panax ginseng

One data set relates to pathway specific substrates. Kind of data set: Enzyme functionality of pathway enzyme homologs and fusion constructs in lysed E. coli cell extracts, product by HPLC. Format: biochemical, E. coli BL21. To be noted: protein expressed in E. coli, lysed cell extract, pathway specific substrate, HPLC. The protocol:
As per one of the possible implementations of the present disclosure, two proteins—cinnamate-4-hydroxylate (C4H) and 4-coumaroyl CoA-ligase (4CL) were expressed as one fusion protein. Also, other two proteins which were expressed as one fusion protein were hydroxycinnamoyl-CoA quinate hydroxycinnamoyltransferase (HCT) and p-coumaroyl quinate 3′-hydroxylase (HCTC3H). The fusion gene and the corresponding fusion protein was prepared using the following method. […] The enzyme fusion constructs were made for the selected genes (Table 5). Pathway genes and the fusion constructs were individually cloned in E. coli expression vector pET28+ under T7 promoter and transformed in E. coli BL21 cells. Recombinant bacterial cells were induced with IPTG and enzyme functionality was tested with pathway specific substrates (Table 5) using lysed E. coli cell extracts. HPLC analysis was carried out to quantify the product formation and in turn shortlisting of efficient enzymes for functional pathway assembly towards Etoposide in E. coli.
The E. coli transformants were grown overnight at 37° C. in 1 ml of M9 minimal media containing ampicillin (100 mg/1), in 96-well format. The next day, 150 μl of each culture was inoculated into 3 ml M9 minimal media containing ampicillin (100 mg/1), IPTG 0.1 mM in 24-well format, and incubated at 30° C. and 200 rpm for ˜20 hours. The following day, cells were spun down and pellets were resuspended in 100 μl of lysis buffer containing 10 mM Tris-HCl pH 8, 5 mM MgCl2, 1 mM CaCl2) and complete mini protease inhibitor EDTA-free (3 tablets/100 ml) (Hoffmann-La Roche, Basel, Switzerland) and frozen at −80° C. for at least 15 minutes to promote cell lysis. Pellets were thawed at room temperature and 50 μl of DNase mix (1 μl of 1.4 mg/ml DNase in H2O (˜80000 u/ml), 1.2 μl of MgCl2 500 mM and 47.8 μl of 4×PBS buffer solution) was added to each well. Plates were shaken at 500 rpm for 5 min at room temperature to allow degradation of genomic DNA. Plates were spun down at 4000 rpm for 30 min at 4° C. and six μl of the lysates were used in in vitro using appropriate substrates for enzymes as per Table 6. In each case, the resulting compounds were measured by HPLC. Results were analysed in comparison with the lysates expressing the corresponding controls (the empty plasmid). […]
B1 showed an enzyme activity of 98%.

In the case of B2, the enzyme activity entry is “around 93%”.

On to B3, for which the enzyme activity is on record as 89%.

Consider B4, for which the enzyme activity is on record as 97%.

The molecule B5 registered an enzyme activity of 97%.

Still in this data set, the particulars now being: substrate tested: Deoxypodophyllotoxin; recombinant E. coli BL21 clone, lysed cell extract.
In the case of B6, the “Enzyme activity in terms of product formation (in %)” value was found to be 93%.

Source of the values: patent US11898183B2, “Programmed microorganisms to attenuate a disease” (priority 2020, dated 2024).
